Tests used:
[1] = biological target: SARS-CoV-2 S1-S2-His-T4 trimer (SARS-CoV-2 (wt; Wuhan strain)); test: SEC
hACE2-fc dimer (human) = hACE2-fc dimer (human) (UniProt Q9BYF1); test: SPR
UniProt Q9BYF1, sequence (Q9BYF1 18-740): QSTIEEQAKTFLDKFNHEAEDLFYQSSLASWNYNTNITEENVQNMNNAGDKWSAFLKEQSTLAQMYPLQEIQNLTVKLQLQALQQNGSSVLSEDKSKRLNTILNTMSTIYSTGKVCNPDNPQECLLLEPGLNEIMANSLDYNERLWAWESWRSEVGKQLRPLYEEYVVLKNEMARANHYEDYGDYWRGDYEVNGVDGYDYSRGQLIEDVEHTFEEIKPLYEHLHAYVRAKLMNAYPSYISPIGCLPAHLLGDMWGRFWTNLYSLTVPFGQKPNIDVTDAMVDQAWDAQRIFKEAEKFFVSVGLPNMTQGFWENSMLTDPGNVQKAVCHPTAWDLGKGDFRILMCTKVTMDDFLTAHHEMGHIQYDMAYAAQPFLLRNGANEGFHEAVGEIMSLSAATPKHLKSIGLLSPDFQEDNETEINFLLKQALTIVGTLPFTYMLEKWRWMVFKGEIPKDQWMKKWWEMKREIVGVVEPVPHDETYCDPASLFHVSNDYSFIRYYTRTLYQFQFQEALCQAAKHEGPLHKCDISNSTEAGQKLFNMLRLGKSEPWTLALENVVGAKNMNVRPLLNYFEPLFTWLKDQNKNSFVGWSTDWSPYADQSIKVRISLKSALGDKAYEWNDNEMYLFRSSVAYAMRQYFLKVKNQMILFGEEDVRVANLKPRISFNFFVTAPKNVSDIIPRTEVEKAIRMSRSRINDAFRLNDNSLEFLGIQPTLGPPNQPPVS

## SARS-CoV-2 S1-S2-His-T4 trimer (domain or fragment)
[1]
  stoichiometry N: 3
hACE2-fc dimer (human)
  KD1 (two-state fit, primary binding): 1.8 nM
  Kd: 0.04 nM
  ka1 (two-state fit, primary binding): 780000 M⁻¹ s⁻¹
  ka2 (two-state fit, secondary transition): 0.011 M⁻¹ s⁻¹
  kd1 (two-state fit, primary binding): 0.0014 s⁻¹
  kd2 (two-state fit, secondary transition): 0.00024 s⁻¹
